Measurements taken from patent US12679878B2, “CRF2 receptor agonists and their use in therapy” (SANOFI, priority 2020, dated 2026).
Starred links: 1 amine or outer side, 2 acyl side, 3 side chain; linkers in the order of their positions; H or OH if unused. Non-standard residues stand in square brackets, D forms with d. Groups on a side chain read outwards from the residue. No end group written: not given here. *: point of attachment. C18 diacid = O=C(O)CCCCCCCCCCCCCCCCC(=O)*; γGlu = O=C(O)[C@H](CCC(=O)[*:2])N[*:1]; Palmitoyl = CCCCCCCCCCCCCCCC(=O)*; AEEA = NCCOCCOCC(=O)O; Aib = CC(C)(N)C(=O)O

Molecular target: rat CRF2R α receptor (rat, UniProt P47866 20-411)
Sequence (P47866 20-411): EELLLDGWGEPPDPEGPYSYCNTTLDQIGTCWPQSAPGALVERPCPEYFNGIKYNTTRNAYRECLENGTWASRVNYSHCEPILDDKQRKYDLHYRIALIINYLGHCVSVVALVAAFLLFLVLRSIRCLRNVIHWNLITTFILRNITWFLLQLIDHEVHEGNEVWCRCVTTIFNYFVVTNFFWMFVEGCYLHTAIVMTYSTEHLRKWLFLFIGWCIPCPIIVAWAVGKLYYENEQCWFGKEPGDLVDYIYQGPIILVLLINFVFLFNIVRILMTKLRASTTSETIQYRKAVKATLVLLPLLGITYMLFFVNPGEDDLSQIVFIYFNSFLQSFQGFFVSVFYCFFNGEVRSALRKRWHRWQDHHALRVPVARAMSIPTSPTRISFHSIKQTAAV
Assay: cell-based or functional assay

Row | EC50 [nM], 0% HSA (cAMP, A7R5 cells) [nM] | Binder
1 | 0.61 | IVLSLD[dV]PIKLK([γGlu-Palmitoyl])QKLLKQQRQRKERQQAEKNKRILERV-NH2 (N-terminus assumed; SMILES CCCCCCCCCCCCCCCC(=O)N[C@@H](CCC(=O)NCCCC[C@H](NC(=O)[C@H](CC(C)C)NC(=O)[C@H](CCCCN)NC(=O)[C@@H](NC(=O)[C@@H]1CCCN1C(=O)[C@H](NC(=O)[C@H](CC(=O)O)NC(=O)[C@H](CC(C)C)NC(=O)[C@H](CO)NC(=O)[C@H](CC(C)C)NC(=O)[C@@H](NC(=O)[C@@H](N)[C@@H](C)CC)C(C)C)C(C)C)[C@@H](C)CC)C(=O)N[C@@H](CCC(N)=O)C(=O)N[C@@H](CCCCN)C(=O)N[C@@H](CC(C)C)C(=O)N[C@@H](CC(C)C)C(=O)N[C@@H](CCCCN)C(=O)N[C@@H](CCC(N)=O)C(=O)N[C@@H](CCC(N)=O)C(=O)N[C@@H](CCCNC(=N)N)C(=O)N[C@@H](CCC(N)=O)C(=O)N[C@@H](CCCNC(=N)N)C(=O)N[C@@H](CCCCN)C(=O)N[C@@H](CCC(=O)O)C(=O)N[C@@H](CCCNC(=N)N)C(=O)N[C@@H](CCC(N)=O)C(=O)N[C@@H](CCC(N)=O)C(=O)N[C@@H](C)C(=O)N[C@@H](CCC(=O)O)C(=O)N[C@@H](CCCCN)C(=O)N[C@@H](CC(N)=O)C(=O)N[C@@H](CCCCN)C(=O)N[C@@H](CCCNC(=N)N)C(=O)N[C@H](C(=O)N[C@@H](CC(C)C)C(=O)N[C@@H](CCC(=O)O)C(=O)N[C@@H](CCCNC(=N)N)C(=O)N[C@H](C(N)=O)C(C)C)[C@@H](C)CC)C(=O)O) [peptide of SEQ ID NO: 227]
2 | 1.12 | IVLSLD[dV]PIKLK(C18 diacid)QILLKQARQK[Aib]QRAQAEKNKRILERV-NH2 (N-terminus assumed; SMILES CC[C@H](C)[C@H](N)C(=O)N[C@H](C(=O)N[C@@H](CC(C)C)C(=O)N[C@@H](CO)C(=O)N[C@@H](CC(C)C)C(=O)N[C@@H](CC(=O)O)C(=O)N[C@@H](C(=O)N1CCC[C@H]1C(=O)N[C@H](C(=O)N[C@@H](CCCCN)C(=O)N[C@@H](CC(C)C)C(=O)N[C@@H](CCCCNC(=O)CCCCCCCCCCCCCCCCC(=O)O)C(=O)N[C@@H](CCC(N)=O)C(=O)N[C@H](C(=O)N[C@@H](CC(C)C)C(=O)N[C@@H](CC(C)C)C(=O)N[C@@H](CCCCN)C(=O)N[C@@H](CCC(N)=O)C(=O)N[C@@H](C)C(=O)N[C@@H](CCCNC(=N)N)C(=O)N[C@@H](CCC(N)=O)C(=O)N[C@@H](CCCCN)C(=O)NC(C)(C)C(=O)N[C@@H](CCC(N)=O)C(=O)N[C@@H](CCCNC(=N)N)C(=O)N[C@@H](C)C(=O)N[C@@H](CCC(N)=O)C(=O)N[C@@H](C)C(=O)N[C@@H](CCC(=O)O)C(=O)N[C@@H](CCCCN)C(=O)N[C@@H](CC(N)=O)C(=O)N[C@@H](CCCCN)C(=O)N[C@@H](CCCNC(=N)N)C(=O)N[C@H](C(=O)N[C@@H](CC(C)C)C(=O)N[C@@H](CCC(=O)O)C(=O)N[C@@H](CCCNC(=N)N)C(=O)N[C@H](C(N)=O)C(C)C)[C@@H](C)CC)[C@@H](C)CC)[C@@H](C)CC)C(C)C)C(C)C) [peptide of SEQ ID NO: 183]
3 | 0.12 | IVLSLD[dV]PTKLK([γGlu-Palmitoyl])QKLLKQERQRKERE[Aib]AEKNKRILERV-NH2 [peptide of SEQ ID NO: 225]
4 | 0.42 | IVLSLD[dV]PIKLK(C18 diacid)QILLKQERQKKQRQQAEKNKQILAQV-NH2 (N-terminus assumed; SMILES CC[C@H](C)[C@H](N)C(=O)N[C@H](C(=O)N[C@@H](CC(C)C)C(=O)N[C@@H](CO)C(=O)N[C@@H](CC(C)C)C(=O)N[C@@H](CC(=O)O)C(=O)N[C@@H](C(=O)N1CCC[C@H]1C(=O)N[C@H](C(=O)N[C@@H](CCCCN)C(=O)N[C@@H](CC(C)C)C(=O)N[C@@H](CCCCNC(=O)CCCCCCCCCCCCCCCCC(=O)O)C(=O)N[C@@H](CCC(N)=O)C(=O)N[C@H](C(=O)N[C@@H](CC(C)C)C(=O)N[C@@H](CC(C)C)C(=O)N[C@@H](CCCCN)C(=O)N[C@@H](CCC(N)=O)C(=O)N[C@@H](CCC(=O)O)C(=O)N[C@@H](CCCNC(=N)N)C(=O)N[C@@H](CCC(N)=O)C(=O)N[C@@H](CCCCN)C(=O)N[C@@H](CCCCN)C(=O)N[C@@H](CCC(N)=O)C(=O)N[C@@H](CCCNC(=N)N)C(=O)N[C@@H](CCC(N)=O)C(=O)N[C@@H](CCC(N)=O)C(=O)N[C@@H](C)C(=O)N[C@@H](CCC(=O)O)C(=O)N[C@@H](CCCCN)C(=O)N[C@@H](CC(N)=O)C(=O)N[C@@H](CCCCN)C(=O)N[C@@H](CCC(N)=O)C(=O)N[C@H](C(=O)N[C@@H](CC(C)C)C(=O)N[C@@H](C)C(=O)N[C@@H](CCC(N)=O)C(=O)N[C@H](C(N)=O)C(C)C)[C@@H](C)CC)[C@@H](C)CC)[C@@H](C)CC)C(C)C)C(C)C) [peptide of SEQ ID NO: 184]
5 | 0.04 | IVLSLD[dV]PIGLK([γGlu-Palmitoyl])QKLLKQQRQRKERQQAEKNKRILERV-NH2 (N-terminus assumed; SMILES CCCCCCCCCCCCCCCC(=O)N[C@@H](CCC(=O)NCCCC[C@H](NC(=O)[C@H](CC(C)C)NC(=O)CNC(=O)[C@@H](NC(=O)[C@@H]1CCCN1C(=O)[C@H](NC(=O)[C@H](CC(=O)O)NC(=O)[C@H](CC(C)C)NC(=O)[C@H](CO)NC(=O)[C@H](CC(C)C)NC(=O)[C@@H](NC(=O)[C@@H](N)[C@@H](C)CC)C(C)C)C(C)C)[C@@H](C)CC)C(=O)N[C@@H](CCC(N)=O)C(=O)N[C@@H](CCCCN)C(=O)N[C@@H](CC(C)C)C(=O)N[C@@H](CC(C)C)C(=O)N[C@@H](CCCCN)C(=O)N[C@@H](CCC(N)=O)C(=O)N[C@@H](CCC(N)=O)C(=O)N[C@@H](CCCNC(=N)N)C(=O)N[C@@H](CCC(N)=O)C(=O)N[C@@H](CCCNC(=N)N)C(=O)N[C@@H](CCCCN)C(=O)N[C@@H](CCC(=O)O)C(=O)N[C@@H](CCCNC(=N)N)C(=O)N[C@@H](CCC(N)=O)C(=O)N[C@@H](CCC(N)=O)C(=O)N[C@@H](C)C(=O)N[C@@H](CCC(=O)O)C(=O)N[C@@H](CCCCN)C(=O)N[C@@H](CC(N)=O)C(=O)N[C@@H](CCCCN)C(=O)N[C@@H](CCCNC(=N)N)C(=O)N[C@H](C(=O)N[C@@H](CC(C)C)C(=O)N[C@@H](CCC(=O)O)C(=O)N[C@@H](CCCNC(=N)N)C(=O)N[C@H](C(N)=O)C(C)C)[C@@H](C)CC)C(=O)O) [peptide of SEQ ID NO: 226]
6 | 0.59 | IVLSLD[dV]PIKLK(C18 diacid)QILLKQERQK[Aib]QREQAEKNKQILAQV-NH2 (N-terminus assumed; SMILES CC[C@H](C)[C@H](N)C(=O)N[C@H](C(=O)N[C@@H](CC(C)C)C(=O)N[C@@H](CO)C(=O)N[C@@H](CC(C)C)C(=O)N[C@@H](CC(=O)O)C(=O)N[C@@H](C(=O)N1CCC[C@H]1C(=O)N[C@H](C(=O)N[C@@H](CCCCN)C(=O)N[C@@H](CC(C)C)C(=O)N[C@@H](CCCCNC(=O)CCCCCCCCCCCCCCCCC(=O)O)C(=O)N[C@@H](CCC(N)=O)C(=O)N[C@H](C(=O)N[C@@H](CC(C)C)C(=O)N[C@@H](CC(C)C)C(=O)N[C@@H](CCCCN)C(=O)N[C@@H](CCC(N)=O)C(=O)N[C@@H](CCC(=O)O)C(=O)N[C@@H](CCCNC(=N)N)C(=O)N[C@@H](CCC(N)=O)C(=O)N[C@@H](CCCCN)C(=O)NC(C)(C)C(=O)N[C@@H](CCC(N)=O)C(=O)N[C@@H](CCCNC(=N)N)C(=O)N[C@@H](CCC(=O)O)C(=O)N[C@@H](CCC(N)=O)C(=O)N[C@@H](C)C(=O)N[C@@H](CCC(=O)O)C(=O)N[C@@H](CCCCN)C(=O)N[C@@H](CC(N)=O)C(=O)N[C@@H](CCCCN)C(=O)N[C@@H](CCC(N)=O)C(=O)N[C@H](C(=O)N[C@@H](CC(C)C)C(=O)N[C@@H](C)C(=O)N[C@@H](CCC(N)=O)C(=O)N[C@H](C(N)=O)C(C)C)[C@@H](C)CC)[C@@H](C)CC)[C@@H](C)CC)C(C)C)C(C)C) [peptide of SEQ ID NO: 182]
7 | 0.42 | IVLSLD[dV]PIKLK([AEEA-AEEA-γGlu-γGlu-C18 diacid])QILLKQARQK[Aib]QRAQAEKNKRILERV-NH2 (N-terminus assumed; SMILES CC[C@H](C)[C@H](N)C(=O)N[C@H](C(=O)N[C@@H](CC(C)C)C(=O)N[C@@H](CO)C(=O)N[C@@H](CC(C)C)C(=O)N[C@@H](CC(=O)O)C(=O)N[C@@H](C(=O)N1CCC[C@H]1C(=O)N[C@H](C(=O)N[C@@H](CCCCN)C(=O)N[C@@H](CC(C)C)C(=O)N[C@@H](CCCCNC(=O)COCCOCCNC(=O)COCCOCCNC(=O)CC[C@H](NC(=O)CC[C@H](NC(=O)CCCCCCCCCCCCCCCCC(=O)O)C(=O)O)C(=O)O)C(=O)N[C@@H](CCC(N)=O)C(=O)N[C@H](C(=O)N[C@@H](CC(C)C)C(=O)N[C@@H](CC(C)C)C(=O)N[C@@H](CCCCN)C(=O)N[C@@H](CCC(N)=O)C(=O)N[C@@H](C)C(=O)N[C@@H](CCCNC(=N)N)C(=O)N[C@@H](CCC(N)=O)C(=O)N[C@@H](CCCCN)C(=O)NC(C)(C)C(=O)N[C@@H](CCC(N)=O)C(=O)N[C@@H](CCCNC(=N)N)C(=O)N[C@@H](C)C(=O)N[C@@H](CCC(N)=O)C(=O)N[C@@H](C)C(=O)N[C@@H](CCC(=O)O)C(=O)N[C@@H](CCCCN)C(=O)N[C@@H](CC(N)=O)C(=O)N[C@@H](CCCCN)C(=O)N[C@@H](CCCNC(=N)N)C(=O)N[C@H](C(=O)N[C@@H](CC(C)C)C(=O)N[C@@H](CCC(=O)O)C(=O)N[C@@H](CCCNC(=N)N)C(=O)N[C@H](C(N)=O)C(C)C)[C@@H](C)CC)[C@@H](C)CC)[C@@H](C)CC)C(C)C)C(C)C) [peptide of SEQ ID NO: 174]
